In publication PMC12865202:

Target: Chicken CapZ (full length α/β) (chicken) (UniProt P13127)
Assay: ITC

RavB (full length, purified) (natural protein)
Kd: 10.8 nM
